± gives the uncertainty stated by the source.
B1: Apoptosis-associated speck-like protein containing a CARD, residues 114 to 194; numbered along this chain, Q9ULZ3 (parent)
chain: FIDQHRAALIARVTNVEWLLDALYGKVLTDEQYQAVRAEPTNPSKMRKLFSFTPAWNWTCKDLLLQALRESQSYLVEDLER

Variants of: B1
Experiment: abundance fitness (aPCA) (normalised: wild type 0, dead -1); higher = more abundant; growth selection in yeast, the domain comes from the species named
Conditions: Homo sapiens
For FIDQHRAALIARVTNVEWLLDALYGEVLTDEQYQAVRAEPTNPSKMRKLFSFTPAWNWTCKDLLLQALRESQSYLVEDLER, the abundance fitness was -0.323 ± 0.085. Variant FIDQHRAALIARVTNVEWLLDALYGKVVTDEQYQAVRAEPTNPSKMRKLFSFTPAWNWTCKDLLLQALRESQSYLVEDLER has an abundance fitness of -0.734 ± 0.078. With FIDQHRAALIATVTNVEWLLDALYGKVLTDEQYQAVRAEPTNPSKMRKLFSFTPAWNWTCKDLLLQALRESQSYLVEDLER the abundance fitness was -0.746 ± 0.13. FIDQHRAALIALVTNVEWLLDALYGKVLTDEQYQAVRAEPTNPSKMRKLFSFTPAWNWTCKDLLLQALRESQSYLVEDLER gave an abundance fitness of -0.948 ± 0.13. Work on FIDQHRAALIARVTNVEWLLDALYGKVLTDEQYQAVRAEPTNPSKMRELFSFTPAWNWTCKDLLLQALRESQSYLVEDLER yielded an abundance fitness of -0.963 ± 0.21. With FIDQHRAALIARVTNVEWLLDALYGKVLTDEQYQAVRAEPTNPSKMRALFSFTPAWNWTCKDLLLQALRESQSYLVEDLER the abundance fitness was -0.745 ± 0.081. FIDQHRAALIARVTNVEWLLDALYGKVLTDEQYQAVRAEPTNPSKMRKLFSFTPSWNWTCKDLLLQALRESQSYLVEDLER showed an abundance fitness of 0.107 ± 0.056. FIDQHRAALIARVTNVEWLLDALYGKVLTDEQYQAVTAEPTNPSKMRKLFSFTPAWNWTCKDLLLQALRESQSYLVEDLER showed an abundance fitness of -0.182 ± 0.075. FIDQHRAALIARVTNVEWLLDALYGKVLTDEQYQAVGAEPTNPSKMRKLFSFTPAWNWTCKDLLLQALRESQSYLVEDLER gave an abundance fitness of -0.479 ± 0.052. FIDQHRAALIARVTNVEWLLDALYGKVLTDEQYQAVQAEPTNPSKMRKLFSFTPAWNWTCKDLLLQALRESQSYLVEDLER showed an abundance fitness of -0.008 ± 0.083. Variant FIDQHRAALIARVTNVEWLLDALYGKVLTDEQYQAVAAEPTNPSKMRKLFSFTPAWNWTCKDLLLQALRESQSYLVEDLER has an abundance fitness of 0.039 ± 0.043. FIDQHRAALIARVTNVEWLLDALYGKVLTDEQYQAVRAEPTTPSKMRKLFSFTPAWNWTCKDLLLQALRESQSYLVEDLER showed an abundance fitness of -0.336 ± 0.11. With FIDQHRAALIARVTNVEWLLDALYGKVLTDEQYQAVRAEPTYPSKMRKLFSFTPAWNWTCKDLLLQALRESQSYLVEDLER the abundance fitness was -0.896 ± 0.36. For FIDQHRAALIARVTNVEWLLDALYGKVLTDEQYQAVRAEPTNPSKMRKLFSFTRAWNWTCKDLLLQALRESQSYLVEDLER, the abundance fitness was -0.026 ± 0.044. For FIDQHRAALIARVTNVEWLLDALYGKVLTDIQYQAVRAEPTNPSKMRKLFSFTPAWNWTCKDLLLQALRESQSYLVEDLER, the abundance fitness was -0.581 ± 0.12. FIDQHRAALIARVTNVEWLLDALYGKVLTDNQYQAVRAEPTNPSKMRKLFSFTPAWNWTCKDLLLQALRESQSYLVEDLER gave an abundance fitness of -0.327 ± 0.22. In the case of FIDQHRAALIARVTNVEWLLDALYGKVLTDEQYQAVRAEPTNPSKMRKLFSFTPAWNWTCKDLLLQALREPQSYLVEDLER, the abundance fitness is reported as -0.774 ± 0.14. In the case of FIDQHRAALIARVTNVEWLLDALYGKVLTDEQYQAVRAEPTNPSKMRKLFSFTPAWNWTCKDYLLQALRESQSYLVEDLER, the abundance fitness is reported as -0.028 ± 0.12. FIDQHRAALIARVTNVEWLLDALYGKVLTDEQYQAVRAEPTNPSKMRKLKSFTPAWNWTCKDLLLQALRESQSYLVEDLER showed an abundance fitness of -1.02 ± 0.32. For FIDQHRAALIARVTNVEWLLDALYGKVLTDEQYQAVRVEPTNPSKMRKLFSFTPAWNWTCKDLLLQALRESQSYLVEDLER, the abundance fitness was -0.419 ± 0.06. FIDQHRAALIARVTNVEWLLDALYGKVLTDEQYQAVRQEPTNPSKMRKLFSFTPAWNWTCKDLLLQALRESQSYLVEDLER gave an abundance fitness of -0.179 ± 0.078. In the case of FIDQHRAALIARVTNVEWLLDAAYGKVLTDEQYQAVRAEPTNPSKMRKLFSFTPAWNWTCKDLLLQALRESQSYLVEDLER, the abundance fitness is reported as -0.753 ± 0.075. FIDQHRAALIARVTNVEWLLDALYGKVLTDEQYYAVRAEPTNPSKMRKLFSFTPAWNWTCKDLLLQALRESQSYLVEDLER showed an abundance fitness of -0.332 ± 0.21. In the case of FIDQHRAALIARVTNVEWLLDALYGKVLTDEQYRAVRAEPTNPSKMRKLFSFTPAWNWTCKDLLLQALRESQSYLVEDLER, the abundance fitness is reported as -0.003 ± 0.052. In the case of FIDQHRAALIARVTNVEWLLDALYGKVLTDEQYQAVRAEPTNPSKMRKLFSFTPAWNWTCKDLLLQLLRESQSYLVEDLER, the abundance fitness is reported as 0.033 ± 0.051. For FIDQHRAALIARVTNVEWLLDALYGKVLTDEQYQAVRAEPTNPSKMRKLFSFTPAWNWTCKDLLLQALYESQSYLVEDLER, the abundance fitness was -0.62 ± 0.09. Variant FIDQHRAALIARVTNVEWLLDALYGKVLTDEQYQAVRAEPTNPSKMRKLFSFTPAWNWTCKDLLLLALRESQSYLVEDLER has an abundance fitness of -0.6 ± 0.078. FIDQHRAALIARVTNVEWLLDALYGKVLTDEQYQAVRAEPTNPSKMRKLFSFTPAWNWTCKDLLLPALRESQSYLVEDLER gave an abundance fitness of -0.48 ± 0.085. Variant FIDQHRAALIARVTNVEWLLDALYGKVLTDEQYQAVRAEPTNPSLMRKLFSFTPAWNWTCKDLLLQALRESQSYLVEDLER has an abundance fitness of -0.918 ± 0.11. Work on FIDQHRAALIARVTNVEWLLDALYGKVLTDEQYQAVRAEPTNPSDMRKLFSFTPAWNWTCKDLLLQALRESQSYLVEDLER yielded an abundance fitness of -1 ± 0.27. For FIDQDRAALIARVTNVEWLLDALYGKVLTDEQYQAVRAEPTNPSKMRKLFSFTPAWNWTCKDLLLQALRESQSYLVEDLER, the abundance fitness was -0.751 ± 0.24. For FIDQSRAALIARVTNVEWLLDALYGKVLTDEQYQAVRAEPTNPSKMRKLFSFTPAWNWTCKDLLLQALRESQSYLVEDLER, the abundance fitness was -0.657 ± 0.09. In the case of FIDQHRAALIARVTNVEWLLDALYGKVLTDEQYQAVRAEPTNPSKMRKLFSFTPAWNWTCKDLLLQALRESQSYLVFDLER, the abundance fitness is reported as -0.147 ± 0.22. In the case of FIDQHAAALIARVTNVEWLLDALYGKVLTDEQYQAVRAEPTNPSKMRKLFSFTPAWNWTCKDLLLQALRESQSYLVEDLER, the abundance fitness is reported as -0.074 ± 0.059.
